Measured values published in PMC4263359, “Vesicular Stomatitis Virus Polymerase's Strong Affinity to Its Template Suggests Exotic Transcription Models” (PLoS Computational Biology, 2014).

Molecular target: T1, VSV L protein (vesicular stomatitis virus (endogenous …, UniProt P03523 1-2109))
T1 construct: also called catalytic unit of the VSV polymerase; polymerase
Assay: co-sedimentation
Conditions: partners not purified

T1 sequence (P03523 whole entry): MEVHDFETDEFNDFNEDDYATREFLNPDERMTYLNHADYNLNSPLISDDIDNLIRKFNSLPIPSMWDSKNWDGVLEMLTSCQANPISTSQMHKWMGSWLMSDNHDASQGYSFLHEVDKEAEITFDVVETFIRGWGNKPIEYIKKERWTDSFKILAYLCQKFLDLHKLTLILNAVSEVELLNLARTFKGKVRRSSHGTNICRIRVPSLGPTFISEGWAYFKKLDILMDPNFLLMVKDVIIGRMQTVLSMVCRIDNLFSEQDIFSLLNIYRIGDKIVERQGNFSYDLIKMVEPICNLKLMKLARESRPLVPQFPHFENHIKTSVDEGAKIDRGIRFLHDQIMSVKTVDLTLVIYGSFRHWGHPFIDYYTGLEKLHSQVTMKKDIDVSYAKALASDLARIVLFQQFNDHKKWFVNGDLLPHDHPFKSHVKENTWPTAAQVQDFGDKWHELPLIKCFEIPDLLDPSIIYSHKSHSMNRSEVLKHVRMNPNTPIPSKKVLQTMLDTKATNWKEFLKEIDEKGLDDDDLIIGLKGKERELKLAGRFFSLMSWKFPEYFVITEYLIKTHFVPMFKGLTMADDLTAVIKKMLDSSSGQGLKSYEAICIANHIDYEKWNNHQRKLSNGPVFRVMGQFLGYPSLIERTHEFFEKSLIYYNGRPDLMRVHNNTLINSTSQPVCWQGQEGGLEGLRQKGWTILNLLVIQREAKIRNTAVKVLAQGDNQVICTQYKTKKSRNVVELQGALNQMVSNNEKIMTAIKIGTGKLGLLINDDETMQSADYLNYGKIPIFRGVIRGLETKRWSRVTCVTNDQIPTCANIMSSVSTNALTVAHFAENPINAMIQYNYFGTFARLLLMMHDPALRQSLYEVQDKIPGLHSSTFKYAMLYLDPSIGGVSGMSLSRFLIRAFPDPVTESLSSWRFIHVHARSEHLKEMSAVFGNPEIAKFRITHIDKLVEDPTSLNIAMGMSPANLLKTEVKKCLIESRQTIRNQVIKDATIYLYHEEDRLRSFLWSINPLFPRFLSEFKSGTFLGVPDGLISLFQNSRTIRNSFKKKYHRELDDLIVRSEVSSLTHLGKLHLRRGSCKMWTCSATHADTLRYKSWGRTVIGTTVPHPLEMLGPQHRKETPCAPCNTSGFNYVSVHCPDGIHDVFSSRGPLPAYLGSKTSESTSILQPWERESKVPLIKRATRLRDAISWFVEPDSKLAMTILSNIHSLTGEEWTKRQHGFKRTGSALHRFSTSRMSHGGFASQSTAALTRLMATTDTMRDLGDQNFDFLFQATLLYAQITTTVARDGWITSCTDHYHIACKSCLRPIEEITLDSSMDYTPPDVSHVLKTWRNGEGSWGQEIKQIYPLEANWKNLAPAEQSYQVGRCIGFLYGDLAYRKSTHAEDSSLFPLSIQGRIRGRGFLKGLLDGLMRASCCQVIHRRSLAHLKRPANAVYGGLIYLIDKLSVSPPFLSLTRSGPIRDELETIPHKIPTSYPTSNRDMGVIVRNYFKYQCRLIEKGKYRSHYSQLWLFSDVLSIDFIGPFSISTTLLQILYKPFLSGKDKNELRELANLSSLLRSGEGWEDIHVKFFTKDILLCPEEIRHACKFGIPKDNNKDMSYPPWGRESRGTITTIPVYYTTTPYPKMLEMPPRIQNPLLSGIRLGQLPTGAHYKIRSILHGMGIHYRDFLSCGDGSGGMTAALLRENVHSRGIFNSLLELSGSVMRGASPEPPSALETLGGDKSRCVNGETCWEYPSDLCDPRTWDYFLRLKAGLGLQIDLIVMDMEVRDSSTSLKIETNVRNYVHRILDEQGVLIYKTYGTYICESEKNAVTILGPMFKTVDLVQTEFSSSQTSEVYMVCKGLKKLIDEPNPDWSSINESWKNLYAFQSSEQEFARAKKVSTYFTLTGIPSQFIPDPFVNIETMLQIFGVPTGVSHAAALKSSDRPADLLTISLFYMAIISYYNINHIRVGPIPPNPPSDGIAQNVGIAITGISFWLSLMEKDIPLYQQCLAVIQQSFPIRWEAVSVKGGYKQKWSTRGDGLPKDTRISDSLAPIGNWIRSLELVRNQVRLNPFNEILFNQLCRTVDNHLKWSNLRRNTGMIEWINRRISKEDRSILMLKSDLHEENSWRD

B1: full genome template (N-RNA) bound with P and L extracted from detergent-disrupted virions (complex)
chain 1: MSVTVKRIIDNTVIVPKLPANEDPVEYPADYFRKSKEIPLYINTTKSLSDLRGYVYQGLKSGNVSIIHVNSYLYGALKDIRGKLDKDWSSFGINIGKAGDTIGIFDLVSLKALDGVLPDGVSDASRTSADDKWLPLYLLGLYRVGRTQMPEYRKKLMDGLTNQCKMINEQFEPLVPEGRDIFDVWGNDSNYTKIVAAVDMFFHMFKKHECASFRYGTIVSRFKDCAALATFGHLCKITGMSTEDVTTWILNREVADEMVQMMLPGQEIDKADSYMPYLIDFGLSSKSPYSSVKNPAFHFWGQLTALLLRSTRARNARQPDDIEYTSLTTAGLLYAYAVGSSADLAQQFCVGDNKYTPDDSTGGLTTNAPPQGRDVVEWLGWFEDQNRKPTPDMMQYAKRAVMSLQGLREKTIGKYAKSEFDK
chain 2: MDNLTKVREYLKSYSRLDQAVGEIDEIEAQRAEKSNYELFQEDGVEEHTKPSYFQAADDSDTESEPEIEDNQGLYAQDPEAEQVEGFIQGPLDDYADEEVDVVFTSDWKPPELESDEHGKTLRLTSPEGLSGEQKSQWLSTIKAVVQSAKYWNLAECTFEASGEGVIMKERQITPDVYKVTPVMNTHPSQSEAVSDVWSLSKTSMTFQPKKASLQPLTISLDELFSSRGEFISVGGDGRMSHKEAILLGLRYKKLYNQARVKYSL
notes: also called whole genome template; copies: 1250 +
Kd: 0.02 nM
